Assay [1] addresses human Fc gamma receptors (FcγR) (human). Briefly: ProteOn XPR36 SPR, His-tagged receptors captured, antibody as analyte, 25 °C, equilibrium model.
Assay [2] addresses human complement component C1q (human) (UniProt P02745). Briefly: ProteOn XPR36 SPR, antibody immobilised, C1q as analyte, equilibrium model.

As usually defined, the Kd is the free concentration of one partner at which half of the binding sites on the other are occupied at equilibrium, for simple one-to-one binding. Read a high Kd as a looser complex.

Chain of human complement component C1q (human) (P02745 23-245 limits assumed, chain 1 of 3): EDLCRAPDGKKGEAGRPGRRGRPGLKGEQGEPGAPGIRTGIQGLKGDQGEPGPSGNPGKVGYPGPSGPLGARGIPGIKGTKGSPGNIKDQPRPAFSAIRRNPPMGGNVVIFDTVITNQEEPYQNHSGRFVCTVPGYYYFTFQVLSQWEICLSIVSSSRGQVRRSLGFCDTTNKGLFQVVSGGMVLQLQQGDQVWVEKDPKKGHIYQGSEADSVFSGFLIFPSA
Chain of human complement component C1q (human) (P02746 28-253 limits assumed, chain 2 of 3, further chain): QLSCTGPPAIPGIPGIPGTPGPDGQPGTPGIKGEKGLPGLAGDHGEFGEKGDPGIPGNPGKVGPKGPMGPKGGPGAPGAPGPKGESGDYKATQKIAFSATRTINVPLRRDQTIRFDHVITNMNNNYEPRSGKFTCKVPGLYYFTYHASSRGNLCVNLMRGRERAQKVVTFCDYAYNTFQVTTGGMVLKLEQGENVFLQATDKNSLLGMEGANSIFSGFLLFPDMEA
Chain of human complement component C1q (human) (P02747 29-245 limits assumed, chain 3 of 3, further chain): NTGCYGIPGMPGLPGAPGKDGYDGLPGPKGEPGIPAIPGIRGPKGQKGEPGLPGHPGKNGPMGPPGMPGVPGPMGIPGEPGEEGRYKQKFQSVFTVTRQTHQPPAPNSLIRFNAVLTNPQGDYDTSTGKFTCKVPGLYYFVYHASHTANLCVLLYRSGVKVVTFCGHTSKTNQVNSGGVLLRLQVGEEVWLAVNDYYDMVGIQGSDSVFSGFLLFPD

The substance YTE containing control antibody showed a fold lower affinity than the human IgG1 wild type control in assay [1] of 1.5 fold. In assay [2], “IgG1 wildtype isotype control (antibody)” came in with a Kd of 465 nM.

The values above are taken from patent publication US20210017269A1.
